Columns and labels:
LdG5K [1] = molecular target: T1, LdG5K (Leishmania donovani, UniProt A0A0R6Y3I5); assay: PK/LDH-coupled NADH oxidation assay; type: biochemical
T1 construct: gene G5K; tetramer about 105 kDa
T1 sequence (A0A0R6Y3I5 1-263): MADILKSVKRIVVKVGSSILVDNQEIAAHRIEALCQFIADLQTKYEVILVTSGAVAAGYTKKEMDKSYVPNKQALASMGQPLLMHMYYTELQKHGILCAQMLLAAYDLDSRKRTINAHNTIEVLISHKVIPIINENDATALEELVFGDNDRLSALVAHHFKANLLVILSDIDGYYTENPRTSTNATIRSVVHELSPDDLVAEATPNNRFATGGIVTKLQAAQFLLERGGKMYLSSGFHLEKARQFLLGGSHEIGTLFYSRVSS
Text: (§1) PK/LDH-coupled NADH oxidation assay on LdG5K

LdG5K [2] = molecular target: T1, LdG5K; assay: PK/LDH-coupled NADH oxidation assay, single point; type: biochemical; conditions: 1 mM compound; 100 mM Na glutamate, 5 mM ATP, 5 mM MgCl2, pH 7.4, 25 °C
Text: PK/LDH-coupled NADH oxidation assay, single point on LdG5K

[3] = substrate: N[C@@H](CCC(=O)O)C(=O)O; assay: PK/LDH-coupled NADH oxidation assay, Hill fit; type: biochemical, Leishmania donovani; conditions: no proline, Hill slope 0.94 ± 0.09, pH 7.4, 25 °C
[4] = molecular target: the molecule itself; assay: SEC; Superdex 200 H/R 10/30, 50 mM Tris-HCl pH 7.2, 0.15 M NaCl, 0.5 mL/min, room temperature; mass estimated against protein standards; no proline
[5] = substrate: Nc1ncnc2c1ncn2[C@@H]1O[C@H](COP(=O)(O)OP(=O)(O)OP(=O)(O)O)[C@@H](O)[C@H]1O; assay: PK/LDH-coupled NADH oxidation assay; type: biochemical, Leishmania donovani; conditions: 150 mM Na glutamate, 5 mM MgCl2, pH 7.4, 25 °C
Text: as §1

[6] = substrate: N[C@@H](CCC(=O)O)C(=O)O; assay: PK/LDH-coupled NADH oxidation assay; type: biochemical, Leishmania donovani; conditions: 5 mM ATP, 5 mM MgCl2, pH 7.4, 25 °C, no proline
Text: as §1

Q: How did the IC50 (LdG5K [1]) turn out when O=C(O)[C@@H]1CSCN1 [L‐4‐thioproline] was run?
A: The IC50 was 1800 ± 200 µM.

Q: For O=C(O)C1C=CCN1 (racemic) [3,4‐dehydro‐D,L‐proline], which IC50 (LdG5K [1]) is on record?
A: Its IC50 is 490 ± 20 µM.

Q: How did the “LdG5K activity (%) with 1 mM” value (LdG5K [2]) turn out when O=C(O)[C@H]1CN[C@H](C(=O)O)C1 [L‐trans‐pyrrolidine‐2,4‐dicarboxylic acid] was run?
A: The value was 84%.

Q: For O=C(O)[C@@H]1CCCN1 [L‐proline], which IC50 (LdG5K [1]) is on record?
A: The IC50 was 390 ± 80 µM.

Q: For O=C(O)[C@@H]1C[C@@H](O)CN1 [Trans‐4‐hydroxy‐L‐proline], which “LdG5K activity (%) with 1 mM” value (LdG5K [2]) is on record?
A: The value was 89%.

Q: O=C(O)[C@@H]1C[C@H](O)CN1 [Cis‐4‐hydroxy‐L‐proline] was tested. Which “LdG5K activity (%) with 1 mM” value (LdG5K [2]) did it give?
A: The value was 87%.

Q: O=C(O)[C@@H]1CCN1 [L‐azetidine‐2‐carboxylic acid] was tested. Which IC50 (LdG5K [1]) did it give?
A: Its IC50 is 730 ± 70 µM.

Q: C[C@@]1(C(=O)O)CCCN1 [α‐methyl‐L‐proline] was tested. Which “LdG5K activity (%) with 1 mM” value (LdG5K [2]) did it give?
A: The value was 82%.

B1: Leishmania donovani glutamate 5-kinase (enzyme, UniProt A0A0R6Y3I5 1-263, looked up)
chain: T1 sequence (A0A0R6Y3I5 1-263)
notes: theoretical Mr 29.033 kDa; Cloned through BamHI/EcoRI into a modified pGEX-6P-1 with an in-frame N-terminal His-GST tag; also called LdG5K; G5K; source: E. coli C41(DE3) pLysS, purified (glutathione resin, on-column cleavage by PreScission protease); not shown: His, N-terminal, cleaved; GST, N-terminal, cleaved
Q: How did the K0.5 [3] turn out when B1 was run?
A: The K0.5 was 19.0 ± 2.9 mM.

Q: What about the kcat [3] of the same molecule?
A: Its kcat is 13.5 ± 0.6 s⁻¹.

Q: What about the “stoichiometry N” value [4] of the same molecule?
A: Its value is 4.

Q: And the Km [5]?
A: The Km was 0.6 ± 0.07 mM.

Q: What about the kcat [5] of the same molecule?
A: The kcat was 11.7 ± 0.3 s⁻¹.

Q: What about the kcat/Km [5] of the same molecule?
A: Its kcat/Km is 19500 M⁻¹ s⁻¹.

Q: What about the Km [6] of the same molecule?
A: The Km was 10 ± 0.7 mM.

Q: What about the kcat [6] of the same molecule?
A: Its kcat is 12.8 ± 0.3 s⁻¹.

Q: And the kcat/Km [6]?
A: Its kcat/Km is 1280 M⁻¹ s⁻¹.

From paper PMC6099280, “Characterisation of a putative glutamate 5‐kinase from Leishmania donovani” (The Febs Journal, 2018)
